B1: Protein kinase, cGMP-dependent, regulatory, Type I (enzyme, human, UniProt Q13976-2 1-686, looked up)
chain: MGTLRDLQYALQEKIEELRQRDALIDELELELDQKDELIQKLQNELDKYRSVIRPATQQAQKQSASTLQGEPRTKRQAISAEPTAFDIQDLSHVTLPFYPKSPQSKDLIKEAILDNDFMKNLELSQIQEIVDCMYPVEYGKDSCIIKEGDVGSLVYVMEDGKVEVTKEGVKLCTMGPGKVFGELAILYNCTRTATVKTLVNVKLWAIDRQCFQTIMMRTGLIKHTEYMEFLKSVPTFQSLPEEILSKLADVLEETHYENGEYIIRQGARGDTFFIISKGTVNVTREDSPSEDPVFLRTLGKGDWFGEKALQGEDVRTANVIAAEAVTCLVIDRDSFKHLIGGLDDVSNKAYEDAEAKAKYEAEAAFFANLKLSDFNIIDTLGVGGFGRVELVQLKSEESKTFAMKILKKRHIVDTRQQEHIRSEKQIMQGAHSDFIVRLYRTFKDSKYLYMLMEACLGGELWTILRDRGSFEDSTTRFYTACVVEAFAYLHSKGIIYRDLKPENLILDHRGYAKLVDFGFAKKIGFGKKTWTFCGTPEYVAPEIILNKGHDISADYWSLGILMYELLTGSPPFSGPDPMKTYNIILRGIDMIEFPKKIAKNAANLIKKLCRDNPSERLGNLKNGVKDIQKHKWFEGFNWEGLRKGTLTPPIIPSVASPTDTSNFDSFPEDNDEPPPDDNSGWDIDF
B2: synphilin (protein, UniProt Q9Y6H5 1-919, looked up)
chain: MEAPEYLDLDEIDFSDDISYSVTSLKTIPELCRRCDTQNEDRSVSSSSWNCGISTLITNTQKPTGIADVYSKFRPVKRVSPLKHQPETLENNESDDQKNQKVVEYQKGGESDLGPQPQELGPGDGVGGPPGKSSEPSTSLGELEHYDLDMDEILDVPYIKSSQQLASFTKVTSEKRILGLCTTINGLSGKACSTGSSESSSSNMAPFCVLSPVKSPHLRKASAVIHDQHKLSTEETEISPPLVKCGSAYEPENQSKDFLNKTFSDPHGRKVEKTTPDCQLRAFHLQSSAAESKPEEQVSGLNRTSSQGPEERSEYLKKVKSILNIVKEGQISLLPHLAADNLDKIHDENGNNLLHIAASQGHAECLQHLTSLMGEDCLNERNTEKLTPAGLAIKNGQLECVRWMVSETEAIAELSCSKDFPSLIHYAGCYGQEKILLWLLQFMQEQGISLDEVDQDGNSAVHVASQHGYLGCIQTLVEYGANVTMQNHAGEKPSQSAERQGHTLCSRYLVVVETCMSLASQVVKLTKQLKEQTVERVTLQNQLQQFLEAQKSEGKSLPSSPSSPSSPASRKSQWKSPDADDDSVAKSKPGVQEGIQVLGSLSASSRARPKAKDEDSDKILRQLLGKEISENVCTQEKLSLEFQDAQASSRNSKKIPLEKRELKLARLRQLMQRSLSESDTDSNNSEDPKTTPVRKADRPRPQPIVESVESMDSAESLHLMIKKHTLASGGRRFPFSIKASKSLDGHSPSPTSESSEPDLESQYPGSGSIPPNQPSGDPQQPSPDSTAAQKVATSPKSALKSPSSKRRTSQNLKLRVTFEEPVVQMEQPSLELNGEKDKDKGRTLQRTSTSNESGDQLKRPFGAFRSIMETLSGNQNNNNNYQAANQLKTSTLPLTSLGRKTDAKGNPASSASKGKNKAA

Columns and labels:
[1] = target: human alpha-synuclein (wild-type, recombinant) (human); assay: cell-based or functional assay
[2] = target: Polo like kinase 2 (PLK2) (human); assay: cell-based or functional assay

Binder | percentage of phospho-synuclein by ELISA, cDNA transfected into PEAK-Syn cells [1] [%] | percent phospho-synuclein by ELISA, PLK2, synuclein and synphilin co-transfected into HEK cells [2] [%]
B1 | 8.9 | 
B2 |  | 83.3
